Data as given in paper doi:10.1101/2021.09.02.458712.

Molecular target: GFP-LL5β (-ADA) (UniProt Q86SQ0)
Assay: co-IP

Chain of UniProt Q86SQ0 (Q86SQ0 whole entry): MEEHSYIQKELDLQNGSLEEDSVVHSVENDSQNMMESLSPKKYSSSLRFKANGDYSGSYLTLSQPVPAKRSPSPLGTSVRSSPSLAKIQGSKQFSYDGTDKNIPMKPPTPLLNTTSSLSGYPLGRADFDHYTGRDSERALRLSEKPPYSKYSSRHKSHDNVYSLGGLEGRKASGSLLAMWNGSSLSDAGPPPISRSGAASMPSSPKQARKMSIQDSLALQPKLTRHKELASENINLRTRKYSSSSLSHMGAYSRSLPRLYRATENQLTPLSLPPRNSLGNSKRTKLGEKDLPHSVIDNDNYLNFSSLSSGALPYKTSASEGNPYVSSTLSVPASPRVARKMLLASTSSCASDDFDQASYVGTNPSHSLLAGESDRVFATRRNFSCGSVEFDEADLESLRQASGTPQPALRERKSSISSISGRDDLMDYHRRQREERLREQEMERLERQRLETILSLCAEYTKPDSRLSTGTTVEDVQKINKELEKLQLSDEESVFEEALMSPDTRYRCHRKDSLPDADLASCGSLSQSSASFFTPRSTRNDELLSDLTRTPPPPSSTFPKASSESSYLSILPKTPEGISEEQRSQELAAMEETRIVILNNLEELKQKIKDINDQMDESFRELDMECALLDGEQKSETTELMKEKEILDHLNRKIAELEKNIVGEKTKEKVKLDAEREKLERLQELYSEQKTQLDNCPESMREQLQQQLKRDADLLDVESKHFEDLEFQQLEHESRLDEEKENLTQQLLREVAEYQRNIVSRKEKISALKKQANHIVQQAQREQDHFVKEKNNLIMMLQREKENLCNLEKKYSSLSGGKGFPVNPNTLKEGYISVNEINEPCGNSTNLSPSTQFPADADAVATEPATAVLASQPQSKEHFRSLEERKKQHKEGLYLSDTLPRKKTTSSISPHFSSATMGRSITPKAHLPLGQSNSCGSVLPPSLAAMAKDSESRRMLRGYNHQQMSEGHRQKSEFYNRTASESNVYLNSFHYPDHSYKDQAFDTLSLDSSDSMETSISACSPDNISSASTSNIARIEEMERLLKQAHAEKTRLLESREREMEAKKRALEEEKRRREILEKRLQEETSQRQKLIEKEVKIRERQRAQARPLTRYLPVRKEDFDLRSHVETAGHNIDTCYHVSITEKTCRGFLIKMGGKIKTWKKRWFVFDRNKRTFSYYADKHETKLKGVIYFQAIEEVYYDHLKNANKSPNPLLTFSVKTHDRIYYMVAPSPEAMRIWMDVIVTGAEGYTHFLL

B1: endogenous CLASP2 (natural protein)
chain: MAMGDDKSFDDEESVDGNRPSSAASAFKVPAPKTSGNPANSARKPGSAGGPKVGGASKEGGAGAVDEDDFIKAFTDVPSIQIYSSRELEETLNKIREILSDDKHDWDQRANALKKIRSLLVAGAAQYDCFFQHLRLLDGALKLSAKDLRSQVVREACITVAHLSTVLGNKFDHGAEAIVPTLFNLVPNSAKVMATSGCAAIRFIIRHTHVPRLIPLITSNCTSKSVPVRRRSFEFLDLLLQEWQTHSLERHAAVLVETIKKGIHDADAEARVEARKTYMGLRNHFPGEAETLYNSLEPSYQKSLQTYLKSSGSVASLPQSDRSSSSSQESLNRPFSSKWSTANPSTVAGRVSAGSSKASSLPGSLQRSRSDIDVNAAAGAKAHHAAGQSVRSGRLGAGALNAGSYASLEDTSDKLDGTASEDGRVRAKLSAPLAGMGNAKADSRGRSRTKMVSQSQPGSRSGSPGRVLTTTALSTVSSGVQRVLVNSASAQKRSKIPRSQGCSREASPSRLSVARSSRIPRPSVSQGCSREASRESSRDTSPVRSFQPLASRHHSRSTGALYAPEVYGASGPGYGISQSSRLSSSVSAMRVLNTGSDVEEAVADALKKPARRRYESYGMHSDDDANSDASSACSERSYSSRNGSIPTYMRQTEDVAEVLNRCASSNWSERKEGLLGLQNLLKNQRTLSRVELKRLCEIFTRMFADPHGKRVFSMFLETLVDFIQVHKDDLQDWLFVLLTQLLKKMGADLLGSVQAKVQKALDVTRESFPNDLQFNILMRFTVDQTQTPSLKVKVAILKYIETLAKQMDPGDFINSSETRLAVSRVITWTTEPKSSDVRKAAQSVLISLFELNTPEFTMLLGALPKTFQDGATKLLHNHLRNTGNGTQSSMGSPLTRPTPRSPANWSSPLTSPTNTSQNTLSPSAFDYDTENMNSEDIYSSLRGVTEAIQNFSFRSQEDMNEPLKRDSKKDDGDSMCGGPGMSDPRAGGDATDSSQTALDNKASLLHSMPTHSSPRSRDYNPYNYSDSISPFNKSALKEAMFDDDADQFPDDLSLDHSDLVAELLKELSNHNERVEERKIALYELMKLTQEESFSVWDEHFKTILLLLLETLGDKEPTIRALALKVLREILRHQPARFKNYAELTVMKTLEAHKDPHKEVVRSAEEAASVLATSISPEQCIKVLCPIIQTADYPINLAAIKMQTKVIERVSKETLNLLLPEIMPGLIQGYDNSESSVRKACVFCLVAVHAVIGDELKPHLSQLTGSKMKLLNLYIKRAQTGSGGADPTTDVSGQS
  fold decrease of association against GFP-LL5β: 2 fold
